Measured values taken from article PMC9256654, “Mechanistic basis for maintenance of CHG DNA methylation in plants” (Nature Communications, 2022).

Legend:
[1] = molecular target: Zea mays ZMET2 (residues 130-912), core fragment harboring the CD, BAH and MTase domains (Zea mays) (UniProt Q9AXT8)
[2] = molecular target: Zea mays ZMET2 (residues 130-912), core fragment harboring the CD, BAH and MTase domains (Zea mays) (UniProt Q9AXT8); remark: listed apart in the source
[3] = molecular target: A. thaliana CMT3 (residues 42-839) (A. thaliana) (UniProt Q94F88)
Sequence of A. thaliana CMT3 (residues 42-839) (A. thaliana) (Q94F88 42-839): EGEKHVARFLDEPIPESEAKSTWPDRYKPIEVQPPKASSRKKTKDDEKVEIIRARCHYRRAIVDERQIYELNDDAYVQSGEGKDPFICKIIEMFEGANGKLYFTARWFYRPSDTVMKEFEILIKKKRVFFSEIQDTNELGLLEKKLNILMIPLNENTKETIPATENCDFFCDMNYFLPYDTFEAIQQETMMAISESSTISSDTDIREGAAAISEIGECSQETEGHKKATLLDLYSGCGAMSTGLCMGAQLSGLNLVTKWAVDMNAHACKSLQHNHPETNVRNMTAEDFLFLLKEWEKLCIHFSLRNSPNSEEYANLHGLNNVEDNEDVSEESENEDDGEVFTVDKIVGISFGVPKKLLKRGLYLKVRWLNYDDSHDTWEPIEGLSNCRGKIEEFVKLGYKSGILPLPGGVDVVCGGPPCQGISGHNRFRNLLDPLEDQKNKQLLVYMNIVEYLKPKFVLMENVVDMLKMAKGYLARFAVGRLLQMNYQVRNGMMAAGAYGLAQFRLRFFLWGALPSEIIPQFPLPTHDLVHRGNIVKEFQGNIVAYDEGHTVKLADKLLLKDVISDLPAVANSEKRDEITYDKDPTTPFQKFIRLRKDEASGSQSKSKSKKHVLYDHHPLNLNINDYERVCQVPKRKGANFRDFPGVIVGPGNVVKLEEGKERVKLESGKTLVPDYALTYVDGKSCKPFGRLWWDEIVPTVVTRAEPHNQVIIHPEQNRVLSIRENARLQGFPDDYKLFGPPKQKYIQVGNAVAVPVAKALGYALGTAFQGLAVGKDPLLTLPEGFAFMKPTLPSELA

Sequence of Zea mays ZMET2 (residues 130-912), core fragment harboring the CD, BAH and MTase domains (Zea mays) (Q9AXT8 130-912): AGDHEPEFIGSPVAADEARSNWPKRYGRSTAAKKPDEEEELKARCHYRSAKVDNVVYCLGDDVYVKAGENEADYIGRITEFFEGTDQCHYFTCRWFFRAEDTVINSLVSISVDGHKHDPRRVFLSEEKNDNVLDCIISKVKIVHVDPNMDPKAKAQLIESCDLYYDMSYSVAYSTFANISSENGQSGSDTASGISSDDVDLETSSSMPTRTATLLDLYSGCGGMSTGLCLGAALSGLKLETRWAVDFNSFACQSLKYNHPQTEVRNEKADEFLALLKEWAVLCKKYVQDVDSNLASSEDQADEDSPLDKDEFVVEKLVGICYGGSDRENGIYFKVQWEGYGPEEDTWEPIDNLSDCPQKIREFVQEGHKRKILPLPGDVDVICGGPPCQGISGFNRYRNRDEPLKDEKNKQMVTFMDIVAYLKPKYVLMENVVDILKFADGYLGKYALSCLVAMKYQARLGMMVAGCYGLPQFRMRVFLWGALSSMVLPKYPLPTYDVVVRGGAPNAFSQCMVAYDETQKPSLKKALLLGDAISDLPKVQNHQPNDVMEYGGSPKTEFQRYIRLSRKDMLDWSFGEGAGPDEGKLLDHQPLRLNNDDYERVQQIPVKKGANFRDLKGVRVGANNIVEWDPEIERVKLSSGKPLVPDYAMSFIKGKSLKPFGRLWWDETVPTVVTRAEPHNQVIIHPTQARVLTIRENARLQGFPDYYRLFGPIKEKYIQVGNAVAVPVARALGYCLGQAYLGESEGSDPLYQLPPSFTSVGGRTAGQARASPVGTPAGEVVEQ

Row | Substance | in vitro DNA methylation activity of ZMET2 on hmCHG DNA, fold stimulation by the peptide [1] [fold] | in vitro DNA methylation activity of ZMET2 on unmodified CAG DNA, fold stimulation by the peptide [1] [fold] | in vitro DNA methylation activity of ZMET2, reduction of the enzymatic stimulation against H3 (1–32)K9me2 [2] [fold] | in vitro DNA methylation activity of CMT3, reduction of the enzymatic stimulation against H3 (1–32)K9me2 [3] [fold]
1 | histone H3K9me2 peptide encompassing residues 1-32, followed by a C-terminal tyrosine (from UniProt P68431 2-33) | 15 | 6 |  | 
2 | histone H3K9me2K18ac peptide residues 1-32, followed by a C-terminal tyrosine (from UniProt P68431 2-33) |  |  | > 3 | > 3
